Reference: patent US20150093388A1 (IMMUNOGEN, published 2015)
Numbering of substitutions follows the chain as printed. In names and notes the source's numbering stands. Values belong to the binder of their own block, whether it stands above or below them.

What was measured:
[1] = target: T1, recombinant FOLR2-His (R&D Systems) (UniProt P14207 17-228, limits assumed); test: ELISA, FOLR2-His immobilized on Ni-NTA plate
T1 construct: not shown: His tag
Procedure: (§1) FOLR1 is a member of Folate Receptor family. Cross-reactivity of the anti-FOLR1 antibodies with the other members of the family FOLR2 and FOLR3 was assayed by ELISA. Recombinant protein FOLR2-His or FOLR3-His (R&D Systems) was immobilized to Ni-NTA plates (QIAGEN) and the anti-FOLR1 antibodies were added to the plates and incubated for 2 hours at room temperature. As positive controls for FOLR2 and FOLR3 ELISA polyclonal anti-FOLR2 and FOLR3 antibodies (R&D systems), respectively, were used. The formed antibody-antigen complexes were detected with hip-labeled goat anti-murine secondary antibody.

[2] = target: T2, recombinant FOLR3-His (R&D Systems) (UniProt P41439 23-245, limits assumed); test: ELISA, FOLR3-His immobilized on Ni-NTA plate
T2 construct: not shown: His tag
T2 sequence (P41439 23-245 limits assumed): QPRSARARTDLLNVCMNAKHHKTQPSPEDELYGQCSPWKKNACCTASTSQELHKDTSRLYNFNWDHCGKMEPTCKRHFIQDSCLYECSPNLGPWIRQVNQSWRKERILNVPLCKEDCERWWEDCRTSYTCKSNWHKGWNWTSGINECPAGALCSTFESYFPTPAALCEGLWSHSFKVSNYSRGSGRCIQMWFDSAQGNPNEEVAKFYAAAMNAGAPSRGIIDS
Procedure: as §1

[3] = target: T3, recombinant human FOLR1-murine IgG2a Fc protein (human; murine, UniProt P15328 25-234, limits assumed); test: ELISA, recombinant human FOLR1-murine Fc2a immobilized on the plate, hrp goat anti-murine secondary
T3 construct: also called humanFOLR1-murine Fc2a; FOLR1-Fc; not shown: murine IgG2a Fc
T3 sequence (P15328 25-234 limits assumed): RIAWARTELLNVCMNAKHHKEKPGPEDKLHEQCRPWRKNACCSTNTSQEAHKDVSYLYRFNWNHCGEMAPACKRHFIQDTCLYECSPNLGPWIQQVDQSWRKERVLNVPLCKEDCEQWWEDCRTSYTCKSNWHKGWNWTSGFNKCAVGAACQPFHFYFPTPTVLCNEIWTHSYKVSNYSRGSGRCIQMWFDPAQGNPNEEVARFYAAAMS
Procedure: The binding affinity of the anti-FOLR1 antibodies was examined by ELISA where recombinant humanFOLR1-murine Fc2a protein was used as the antigen. The recombinant protein was immobilized on microtiter plates, and the antibodies were added at a range of concentrations to the plates. The plates were incubated for two hours at room temperature, washed with PBS supplemented with 0.05% Tween-20, and incubated with hrp-labeled goat anti-murine secondary antibody for one hour at room temperature. The plates were washed with PBS/Tween-20 again, and bound hrp-conjugated antibody was detected by adding the hrp-substrate TMB (Bio-FX).

[4] = target: T4, human folate receptor 1 (FOLR1) on cells, in cell lysates and in FFPE tissues (human, UniProt P15328 25-234, N-glycosylated at positions 69, 161 and 201); test: Western blot of cell lysates
T4 construct: also called folate receptor alpha; FR-alpha
T4 sequence (P15328 25-234): as the sequence (P15328 25-234 limits assumed) above
Procedure: (§2) Human FOLR1 has three potential sites for N-glycosylation at positions 69, 161 and 201 (UniProt), and, as reported in literature, all three sites are glycosylated. To characterize the nature of the epitopes recognized by the anti-FOLR1 antibodies described herein, binding experiments were performed with deglycosylated and non-treated receptor. Of the generated anti-FOLR1 clones, only clone 2.1 was used in the study because, based on the sequencing data, the clones are related and likely to bind to the same epitope. In addition to clone 2.1, two other anti-FOLR1 antibodies were included: huMov19 (WO 2011/106528) and clone BN3.2 (Leica). In order to deglycosylate FOLR1, recombinant human FOLR1 or lysates of FOLR1-positive KB or Igrov-1 cells were treated with a mixture of deglycosylation enzymes (Enzymatic DeGlycoMX Kit, QA-bio) according to the Manufacturer's protocol. Then, samples of treated and non-treated FOLR1 were used in ELISA and Western blot analysis. […] After 2 h incubation, antibody-antigen complexes were detected with hip-labeled goat anti-human (for huMov19) or anti-murine (for 2.1) secondary antibody (FIG. 7). […] The membrane was incubated with the anti-FOLR1 antibodies 2.1, huMov19, or BN3.2, and the antigen-antibody complexes were detected with the appropriate secondary anti-murine or anti human antibodies conjugated with horse-radish peroxidase (FIG. 8).

[5] = target: T5, deglycosylated human FOLR1 in lysates of KB and Igrov-1 cells (human, UniProt P15328 25-234, glycans removed with a mixture of deglycosylation enzymes (Enzymatic DeGlycoMX Kit)); test: Western blot of enzymatically deglycosylated cell lysates
T5 construct: Endogenous FOLR1 of cell lysates after enzymatic deglycosylation; also called deglycosylated lysates
T5 sequence (P15328 25-234): as the sequence (P15328 25-234 limits assumed) above
Procedure: as §2

[6] = target: T6, recombinant human FOLR1 (non-treated) (human, UniProt P15328 25-233, limits assumed, N-glycosylated (non-treated)); test: ELISA, FOLR1 immobilized on the plate, hrp goat anti-human secondary
T6 construct: also called huFOLR1 recombinant protein; non-treated FOLR1
T6 sequence (P15328 25-233 limits assumed): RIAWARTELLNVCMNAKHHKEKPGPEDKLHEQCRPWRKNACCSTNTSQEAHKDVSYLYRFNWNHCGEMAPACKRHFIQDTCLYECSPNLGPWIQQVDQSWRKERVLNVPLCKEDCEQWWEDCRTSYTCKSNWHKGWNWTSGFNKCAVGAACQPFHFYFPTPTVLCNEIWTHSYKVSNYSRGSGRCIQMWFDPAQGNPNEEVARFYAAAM
Procedure: as §2

[7] = target: T7, deglycosylated recombinant human FOLR1 (human, UniProt P15328 25-233, limits assumed, glycans removed with a mixture of deglycosylation enzymes (Enzymatic DeGlycoMX Kit)); test: ELISA, deglycosylated FOLR1 immobilized on the plate, hrp goat anti-human secondary
T7 construct: also called deglycosylated FOLR1
T7 sequence (P15328 25-233 limits assumed): as above
Procedure: as §2

T1 sequence (P14207 17-228 limits assumed): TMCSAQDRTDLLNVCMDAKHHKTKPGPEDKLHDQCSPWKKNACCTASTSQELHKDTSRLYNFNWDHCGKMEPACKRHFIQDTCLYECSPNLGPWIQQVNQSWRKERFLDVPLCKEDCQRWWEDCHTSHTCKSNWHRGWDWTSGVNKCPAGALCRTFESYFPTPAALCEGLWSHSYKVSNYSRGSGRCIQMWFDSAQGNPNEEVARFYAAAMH

- binding result [1]: no binding (tested: 10^-8 M)
- binding result [2]: no binding (tested: about 3x10^-8 M)
- EC50 [3]: 500 pM
B1: muFRIHC2-1 (anti-FOLR1 antibody 353.2-1, ATCC PTA-120197) (antibody, mouse IgG1, kappa, V domains shown)
VH: QVQLQQSGPELVKPGASVRISCKASGYTFTNSYIHWVKKRPGQGLEWIGWIYPESLNTQYNEKFKAKATLTADKSSSTSYMQLSSLTSEDSAVYFCARRGIYYYSPYALDHWGQGASVTVSS
VL: DVVLTQTPLSLPVNIGDQASISCKSSKSLLNSDGFTYLDWYLQKPGQSPQLLIYLVSNHFSGVPDRFSGSGSGTDFTLKISRVEAEDLGVYYCFQSNYLPLTFGGGTKLEIKR
notes: also called FOLR1-2.1

- binding result [1]: no binding (tested: 10^-8 M)
- binding result [2]: no binding (tested: about 3x10^-8 M)
B3: anti-FOLR1 antibody 353.9-21 (antibody, mouse IgG1, kappa, V domains shown)
VH: QVQLQQSGPDLVKPGASVRISCKASGFTFTNYYIHWVKQRPGQGLEWIGWIYPENVNVRYNDKFKAKATLTADKSSSTAYMQLSSLTSEDSAVYFCARRGIYYYSPYAMDYWGQGASVTVSS
VL: B1 VL with I15L, S26T
notes: Sister subclone of 9.20; also called clone 9.21

The next lines start with the binder.

B2: muFRIHC5-7 (anti-FOLR1 antibody 353.5-7) (antibody, mouse IgG1, kappa, V domains shown)
VH: B1 VH with L11V, S32Y, K39Q, E54G, L56F, T58V, Q59E, S79V, Y103F, H111Y
VL: B1 VL with S26T, K27E, I111V
notes: Murine monoclonal; also called clone 5.7
- binding result [1]: no binding (tested: 10^-8 M)
- binding result [2]: no binding (tested: about 3x10^-8 M)

B4: huMov19 (antibody, human IgG1, kappa, V domains shown)
VH: QVQLVQSGAEVVKPGASVKISCKASGYTFTGYFMNWVKQSPGQSLEWIGRIHPYDGDTFYNQKFQGKATLTVDKSSNTAHMELLSLTSEDFAVYYCTRYDGSRAMDYWGQGTTVTVSS
VL: DIVLTQSPLSLAVSLGQPAIISCKASQSVSFAGTSLMHWYHQKPGQQPRLLIYRASNLEAGVPDRFSGSGSKTDFTLTISPVEAEDAATYYCQQSREYPYTFGGGTKLEIKR
notes: the full chains labelled huMov19 HC (55) and huMov19 LCv1.60 (57) are used; also called M9346A; antibody of IMGN853
- binding result [4]: binds
- binding result [5]: binds
- binding result [6]: binds
- binding result [7]: binds
